Source: the supplement of paper PMC11908140

B1: library; numbered along this chain (parent)
chain: MRKPRAAVGSGHRKQAASQEGRQKHAKNNSQAKPSACDGLARQPEEVVLQASVSSYHLFRDVAEVTAFRGSLLSWYDQEKRDLPWRRRAEDEMDLDRRAYAVWVSEVMLQQTQVATVINYYTGWMQKWPTLQDLASASLEEVNQLWAGLGYYSRGRRLQEGARKVVEELGGHMPRTAETLQQLLPGVGRYTAGAIASIAFGQATGVVDGNVARVLCRVRAIGADPSSTLVSQQLWGLAQQLVDPARPGDFNQAAMELGATVCTPQRPLCSQCPVESLCRARQRVEQEQLLASGSLSGSPDVEECAPNTGQCHLCLPPSEPWDQTLGVVNFPRKASRKPPREESSATCVLEQPGALGAQILLVQRPNSGLLAGLWEFPSVTWEPSEQLQRKALLQELQRWAGPLPATHLRHLGEVVHTFSHIKLTYQVYGLALEGQTPVTTVPPGARWLTQEEFHTAAVSTAMKKVFRVYQGQQPGTCMGSKRSQVSSPCSRKKPRMGQQVLDNFFRSHISTDAHSLNSAAQ

Variants of: B1
Test: 8OG:A repair function score (normalized; synonymous = 0, nonsense = -1) (normalized log-likelihood score); higher = more repair activity (WT-like)
Conditions: with 8OG:A DNA repair reporter (GFP) in HEK-293 MUTYH KO cells
Summary of the method: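 Per-tile Rosace fitness scores were converted to a normalized repair function score anchored on synonymous and nonsense distributions. That scale puts synonymous medians at 0 and nonsense medians at -1. Variants with starting counts under 300 counts per million were discarded. Input came from sorting viable mCherry+ MUTYH knockout HEK-293 cells, carrying lentiviral MUTYH cDNA NNN codon-scan libraries in 10 pg/ml doxycycline and an 8OG:A GFP repair reporter, into GFP+ and GFP− bins at 72 h, three replicates per tile, followed by tile amplicon sequencing.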
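Further: cells sorted at 72 h after reporter transfection.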

Point of comparison: L40T, “8OG:A repair function score” value 0.087. Against it:
- Q110L — lower, -0.353
- L370Y — lower, -0.258
- V458T — lower, -0.214
- F504Y — lower, 0.0257
- S518D — lower, -0.00955
- S518T — lower, 0.014
- E385L — lower, 0.0198
- P44F — lower, -0.202
- A513K — lower, 0.0278
- A513I — lower, 0.00892
- S378R — lower, -0.122
- G372D — lower, -0.324
- T263N — lower, -0.0422
- T476A — lower, -0.0442
- T476F — lower, 0.0194
- E303A — lower, -0.0517
- Q397F — lower, 0.0272
- R219E — lower, -0.837
- G171V — lower, -0.443
- G171E — lower, -0.526
- M478I — lower, -0.0519
- G497V — lower, -0.00253
- S294I — lower, 0.00404
- P225D — lower, -0.53
- P225Y — lower, 0.0138
- P474M — lower, 0.0118
- P474I — lower, -0.014
- Q144P — lower, -0.282
- E275L — lower, -0.00764
- A520W — lower, -0.0228
- A520I — lower, -0.0239
- V427R — lower, -1.04
- E287G — lower, -0.0256
- W128C — lower, -0.476
- W399A — lower, -0.229
- A357M — lower, -0.0956
- Q78S — lower, 0.00682
- Q78M — lower, -0.517
- A456E — lower, -0.405
- A456K — lower, -0.248
- S227T — lower, 0.0756
- S344E — lower, -0.0813
- G475N — lower, 0.0259
- R213S — lower, -1.01
- R213K — lower, -1
- V47W — lower, 0.0191
- V47I — lower, 0.0706
- I509R — lower, -0.0323
- L387G — lower, -0.154
- L387Y — lower, -0.136
- D502S — lower, -0.0153
- L257Q — lower, -0.72
- G293H — lower, -0.05
- K481N — lower, -2.28e-05
- V301H — lower, -0.166
- L360Y — lower, -0.447
- L360M — lower, -0.352
- L360S — lower, -1.32
- T122L — lower, -0.0652
- A354P — lower, 0.0108
- A354G — lower, -0.0387
- G356E — lower, -0.141
- K337F — lower, -0.221
- G150A — lower, -1.42
- G150H — lower, -1.12
- G150W — lower, -1.09
- F200R — lower, -0.97
- A391C — lower, -0.0464
- Q181R — lower, -0.0552
- G429R — lower, -0.355
- E382H — lower, 0.042
- V102N — lower, -1.28
- V465E — lower, -1.42
- K390Y — lower, -0.199
- D61M — lower, -0.00523
- D61K — lower, 0.00675
- H312N — lower, -0.0171
- A137Y — lower, -0.928
- A137N — lower, -0.267
- S343W — lower, -0.0714
- S343A — lower, 0.0302
- Q239A — lower, -0.104
- Q239V — lower, -0.529
- L58C — lower, -0.0122
- R340C — lower, -0.18
- R340S — lower, -0.153
- E160K — lower, -0.0797
- S52F — lower, -0.0245
- C347V — lower, -0.045
- S296R — lower, 0.0309
- R398M — higher, 0.0969
- F376S — lower, -0.657
- T436R — lower, -0.124
- M125R — lower, -0.877
- T228E — lower, 0.0521
- R81M — lower, -0.492
- A212N — lower, -0.24
- S105L — lower, -0.798
- C477I — lower, -0.0054
- C477H — lower, 0.0203
- D512Q — lower, -0.02
- D512G — lower, -0.00398
- D512K — lower, -0.0591
- L315E — lower, -0.305
- N143G — lower, -0.139
- N143V — lower, -0.199
- N143W — lower, -0.253
- E452P — lower, -0.856
- S226D — lower, -0.146
- G412T — lower, -0.494
- Q426D — lower, -0.46
- G148N — lower, -0.669
- L49E — lower, 0.0582
- M93W — lower, -0.00669
- Q363W — lower, -0.451
- Q132W — lower, -0.228
- Q435V — lower, -0.157
- Q435Y — lower, 0.0772
- L234S — lower, -0.827
- Q386T — lower, -0.191
- Q386W — higher, 0.351
- P320D — lower, -0.134
- A405T — lower, -0.128
- Y100S — lower, -1.56
- G155D — lower, -0.75
- T417I — lower, -0.142
- A203F — lower, -0.255
- A203Q — lower, 0.0356
- E178V — lower, -0.12
- S486P — lower, 0.0275
- V207E — lower, -1.03
- L145D — lower, 0.000565
- L145P — lower, -1.26
- L145K — lower, 0.0459
- Q521G — lower, -0.018
- D243Q — lower, -0.829
- Q310W — lower, -0.0199
- W235A — lower, -0.284
- P365M — lower, -0.184
- P185Y — lower, -0.363
- G368H — lower, -0.275
- S292D — lower, -0.0297
- Q472R — lower, 0.0222
- D300V — lower, -0.0916
- P352S — lower, -0.0991
- P352F — lower, -0.188
- W447P — lower, -0.941
- L392P — lower, -1.09
- L392C — lower, -0.389
- E451M — lower, 0.0404
- E451P — lower, -0.158
- R364E — lower, -0.504
- G161Y — lower, -1.04
- L430C — lower, -0.0232
- L149E — lower, -1.24
- T112P — lower, -1.38
- R69P — lower, -1.42
- T116L — lower, 0.023
- T116Y — lower, -0.0318
- Q252T — lower, -0.856
- L313W — lower, -0.257
- D224C — lower, -0.955
- D224S — lower, -0.964
- Q484D — lower, -0.0184
- L241S — lower, -0.626
- L241Y — lower, -0.893
